One block for each binder: values may come before it. No end group written: not given here. *: point of attachment. Biotin = O=C1N[C@H]2[C@H](CS[C@H]2CCCCC(=O)*)N1
B2: B56α (recombinant, WT) (natural protein)
chain: not shown
notes: PP2A regulatory subunit B56α; pGEX-B56α WT; also called B56α WT; source: E. coli BL21, purified (glutathione agarose, GST removed with AcTEV); not shown: GST, N-terminal, cleaved

How the values were obtained:
Details in all cases: both partners purified
B56α (recombinant, WT) [1] = target: B2; test: pull-down; competition: B56α pre-incubated with CIP2A peptide (aa.18-40) 30 min 37 °C, then GST-BubR1(647-720) 1 h 37 °C, 10 pmol each, glutathione bead pull-down, Western blot
GST-CIP2A(1-560) [2] = target: T1, GST-CIP2A(1-560) (human, UniProt Q8TCG1 1-560); test: pull-down; GST-CIP2A incubated with the pre-assembled PP2A-B56α holoenzyme (A-B56α-PP2Ac), glutathione beads; Coomassie gel and Western blot; CIP2A also titrated against equal molar amounts of PP2A proteins
T1 construct: CIP2A, human, residues 1-560; pGEX vector, thrombin-cleavable N-terminal GST; also called GST-tagged CIP2A(1-560) WT; GST-fused CIP2A(1-560); source: E. coli BL21, purified (glutathione agarose); not shown: GST, N-terminal, kept

CIP2A(1-560)V5 His = target: T2, CIP2A(1-560)V5 His (human, UniProt Q8TCG1 1-560); test: pull-down; competition: GST-BubR1(647-720), B56α and CIP2A(1-560)V5, 10 pmol each, glutathione bead pull-down, B56α on BubR1 by Western blot
T2 construct: CIP2A, human, residues 1-560; also called V5-tagged recombinant CIP2A(1-560); source: recombinant

GST-CIP2A(1-560) K8A = target: T3, GST-CIP2A(1-560) K8A (human, UniProt Q8TCG1 1-560, K8A); test: pull-down; GST pull-down on glutathione agarose; 10 pmol of each protein in 150 µL 50 mM Tris HCl pH 7.5, 150 mM NaCl, 2 mM DTT, 0.2% Igepal, 10% glycerol, 1 h 37 °C; Western blot
T3 construct: CIP2A, human, residues 1-560, K8A; also called CIP2A(1-560) K8A mutant; source: E. coli BL21, purified (glutathione agarose); not shown: GST, N-terminal, kept

[3] = target: T4, CIP2A(1-560) as used for XL-MS (human, UniProt Q8TCG1 1-560); test: cross-linking; XL-MS: CIP2A and B56α mixed 1:2, RT 60 min, about 0.5 mg/mL; DSS 100 or 500 µM (PBS pH 8.0, 2 mM DTT, 10% glycerol, 30 min 37 °C) or PDH + DMTMM (pH 7, 45 min 37 °C); LC-MS/MS, xQuest
T4 construct: CIP2A, human, residues 1-560; source: E. coli BL21, purified (glutathione agarose), dialysed into PBS pH 8, 2 mM DTT, 10% glycerol

GST-CIP2A(1-560) [4] = target: T1, GST-CIP2A(1-560); test: pull-down; GST pull-down on glutathione agarose; 10 pmol of each protein in 150 µL 50 mM Tris HCl pH 7.5, 150 mM NaCl, 2 mM DTT, 0.2% Igepal, 10% glycerol, 1 h 37 °C; Western blot
B56α (recombinant, WT) [5] = target: B2; test: cross-linking; XL-MS: CIP2A and B56α mixed 1:2, RT 60 min, about 0.5 mg/mL; DSS 100 or 500 µM (PBS pH 8.0, 2 mM DTT, 10% glycerol, 30 min 37 °C) or PDH + DMTMM (pH 7, 45 min 37 °C); LC-MS/MS, xQuest
B56α (recombinant, WT) [6] = target: B2; test: pull-down; GST pull-down on glutathione agarose; 10 pmol of each protein in 150 µL 50 mM Tris HCl pH 7.5, 150 mM NaCl, 2 mM DTT, 0.2% Igepal, 10% glycerol, 1 h 37 °C; Western blot

binding result (B56α (recombinant, WT) [1]): binds
B1: CIP2A peptide (aa18-40) (peptide)
peptide: Biotin-KAVKSEANATQLLRHLEVISGQK
notes: CIP2A, human, head domain residues 18-40; also called CIP2A N-terminal head peptide; CIP2A head peptide; source: synthetic peptide (Fmoc solid phase, HPLC purified, 87% purity)

Binder: B2
binding result (GST-CIP2A(1-560) [2]): binds | binding result (CIP2A(1-560)V5 His): binds | binding result (GST-CIP2A(1-560) K8A): binds | binding result [3]: binds

binding result (GST-CIP2A(1-560) [4]): binds
B3: B56α Y215Q (natural protein)
chain: not shown
notes: PP2A regulatory subunit B56α with Y215Q; source: purified recombinant

binding result (B56α (recombinant, WT) [5]): binds
B4: CIP2A(1-330) as used for XL-MS (domain or fragment)
chain: not shown
notes: CIP2A, human, residues 1-330; also called CIP2A(1-330) fragment; source: E. coli BL21, purified (glutathione agarose), dialysed into PBS pH 8, 2 mM DTT, 10% glycerol

binding result (B56α (recombinant, WT) [6]): binds
B5: GST-CIP2A(1-330) A24E (domain or fragment)
chain: not shown
notes: CIP2A, human, residues 1-330, A24E; also called A24E mutant; source: E. coli BL21, purified (glutathione agarose); not shown: GST, N-terminal, kept

binding result (GST-CIP2A(1-560) [4]): binds
B6: B56α K181A/K217A/K227A (recombinant) (natural protein)
chain: not shown
notes: PP2A regulatory subunit B56α with K181A, K217A and K227A; also called B56α triple mutant
